{
  "source": "the DeepSol protein solubility set",
  "data": [
    {"test": "soluble on expression in E. coli; label from the status in PepcDB or PDB records", "values": [
      {"sequence": "MTQKLHIKTWGCQMNEYDSSKMADLLLSTHGLELTEAPEEADVLLLNTCSIREKAQEKVFHQLGRWKELKKNNPNLVIGVGGCVASQEGEHIRHRAPYVDIIFGPQTLHRLPEMINQIRGGKSSVVDVSFPEIEKFDRLPEPRAEGPTAFVSIMEGCNKYCTFCVVPYTRGEEVSRPVDDVLFEIAQLAEQGVREVNLLGQNVNAYRGPTHDGQICSFAELLRLVASIDGIDRLRFTTSHPIEFTDDIIDVYRDTPELVSFLHLPVQAGSDRVLTMMKRAHTALEYKSIIRKLRAVRPDIQISSDFIVGFPGETAEDFEQTMNLIAQVNFDMSFSFVYSARPGTPAADMPDDVTEDEKKQRLYVLQERINQQAAQFSRRMLGTEQRVLVEGPSKKDIMELTGRTETNRIVNFQGSPEMIGKFVDVKITDVYTNSLRGEVVRTEDEMGLRIAQSPQEVMNRTRKEDELGVGRYHGLEHHHHHH", "soluble on expression in E. coli": "soluble"},
      {"sequence": "MTQLWVERTGTRRYIGRSTRGAQVLVGSEDVDGVFTPGELLKIALAACSGMASDQPLARRLGDDYQAVVKVSGAADRDQERYPLIEETMELDLSGLTEDEKERLLVVINRAVELACTVGRTLKSGTTVNLEVVDVGA", "soluble on expression in E. coli": "not soluble"},
      {"sequence": "MTQPLVGKQILIVEDEPVFRSLLDSWFSSLGATTALAGDGVDALELMGRFTPDLMICDIAMPRMNGLKLVENLRNRGDQTPILVISATENMADIAKALRLGVEDVLLKPVKDLNRLRETVFACLYPNMFNSRVEEEERLFRDWDAMVSNPTAAAQLLQELQPPVQQVISHCRINYRQLVSADQPGLVLDIAPLSDNELAFYCLDVTRAGDNGVLAALLLRALFNGLLQDQLGQQKHRLPELGALLKQVNHLLRQANLPGQFPLFVGYYHSELKNLILVSAGLNATLNTGAHQVQISSGVPLGTLGNAYLNQLSQRCDSWQCQIWGAGGRLRLMLSAE", "soluble on expression in E. coli": "not soluble"},
      {"sequence": "MTQPSAPAPQIAIDSHDDKAWRDTLLKVAAILCERQPDSPQGYRLRRHALWQSITSTPQAESDGRTPLAAVSADMVADYQSRLASADMALWQQVEKSVLLAPYWLDGHCLSAQTALRLGYKQVADTIRDEVIRFLERLPQLTGLLFNDRTPFLSEQTKQWLAASPDGKVAPVAQIGEESQAARACFAGQGLEAALRYLDMLPEGDPRDQFHRQYLAAQLTEEAGLIQLAQQQYRMLLMIGSQMMVSDWEPSLLTQLEQKFTAEQ", "soluble on expression in E. coli": "soluble"},
      {"sequence": "MTQTNNRLFDEIGRLMNDAAGAAQGVKREIDGVVRSQAEKILRDLDLVKREEFEAFKEMVRLTREENEALKARIAALEARQGGGSEPPTALA", "soluble on expression in E. coli": "not soluble"},
      {"sequence": "MTQYVFEMGMTCNGCANAARKVLGKLGEDKIKIDDINVETKKITVTTDLPASDVLEALKKTGKEIKQLQ", "soluble on expression in E. coli": "not soluble"},
      {"sequence": "MTRKPLTLTGSALAVLRALVERGPSTRPQLGQDLGLSRPTMSAAMAELMEAGLVEPIGSVQGGMGRRAVEYRVATHAGHVIAVDAGSTHIRLRLSTLDRRLLHASLHPLPNSQYSLTPQISSVVADAVAEALEKTEVDWGPLLAMVIAIPTRVVGPEGDTAATDQEVIFTNFTPPPQVDCTLVNNVNCAAVAEYHYGAARGHQTFAFLQVGVKIGLGLMLNGQILPGVNGAAGEIGHITFPFAPGLTPVPGEAERYIGTEAFMARVRADWPKGSGRPPADTYELLARAGEGDAAALRHVEGHAAEIGAVIAICVSVIDPGLVVLGGGYGASPLLRPKVEEVVRHLAFPAEITTSTLAAEATVLGAERLAVDRAVSVLLGLPA", "soluble on expression in E. coli": "not soluble"},
      {"sequence": "MTRSALKPFKNKRVMVTGRIQRVLFKNYLDRHSTFKPNVRILLKDVFVSGVSIDHLWLYETNKYYALAMELIHQRVKFSANVVPYYKINRNNNLFVQDYGIKRKGRLITEEAYNQNNQYQDKIYEKLPDIDFRLEDFYSKENLEHHHHHH", "soluble on expression in E. coli": "not soluble"},
      {"sequence": "MTRTLASLFGPLQPMALAEDLAAPLLAMPIPEGAADPAAAARAPAAGPTVPDRFTVARGLAVVPVRGILTPNMAQYERWFGWATYHGLAETMAHLAASEDAAAIVLEIDSPGGLVCGIEAAAEAIAAAAAVKPVHALVSPLAASAAYWLASQASEIVMTPGAVAGSIGVALTAAAHVQPGANGAQIFEMSSRHARAKRPDASTEAGRAELQRSLDEAEAAFHAAVSAGRAIPAAELAARLSVTDDPQDGGATFRAPEAIRRGLADRIETRAAFYARLAARTAPKPRSPSRAFAARAAAAAALARS", "soluble on expression in E. coli": "not soluble"},
      {"sequence": "MTSDATHEEAVSLLQELGLKEYEAKCFVGLSRMSSGTAKGLSEVTDVPRTRVYDAVRILEAKGLVEVQHSSPQQFRAVPLSEATETLRDQYEERIERLQSALREMGRIEADNDEAELQEVWSLSGSDAIENRAAAISADATDEVVLVIGSEAVLTEPLIKQLNSLNPNADLIVGTGSASIRDRVEQEIPRATAFLSELDWLHSEMIPEEDAAVGRLLLVDRSTMLVSSINPQTGDEQAIFATGLRNGLIVIARRLLSQGVVEMTPLEQD", "soluble on expression in E. coli": "not soluble"},
      {"sequence": "MTSGAPPTISTEKSRSKQLRKSSKRTASTVEGTEAKQMRGDTENRSDGEMDDVSTSSEIRHGNGFIENFRSQTGNSSRTTATNERIKKKLVIKNFKANANQNDVAMGDTNIDSTDGSVGRDWAVLSDNVFAILEDRKTVTTLEGLFSKVRSVCDKNQSKVLYDRLVAIVVQFAKSLKESLNAVEQVPLAEDNCEQYLEKFGQIWQAYPVKINLIRNIFLHLDRIALGATDTEILPLWECFMQIFQKTFFPNIFKEFKATKLFNALYMAMQKIMQRYPVDSPLRSLVDMLQTVHVSEEFAKFLISQLREHYNNERIDKVPKMNCNDYMEYCEDQINRYSQLVKVNFDEPSALKDVQATVTNCLIQQAIPEILTHDFDDLIDSDNISDIGRMFNLCRQCVGGEDEVRTQFSKYLKKRGEKLIATCPDEDLVSELLAFKKKVDFIMTGSFKSANDPVKMRQCLSDAFESFVNKQVDRSAELISKHFHTLLHSSNKNVSDDTTLDQMVDEAIVLFRYLRGKDVFEAYYKRGLAKRLFLERSASVDAEKMVLCKLKTECGSAFTYKLEGMFKDMDASENYGRLFNQYLEHMNKEKANFTARVITPEYWPTYDTYEINIPKEMRDTLTDYQDFYRVQHGNRNVKWHHGLASAVISASFRPGCKKELIATMYQTVILLLFNKCETWTVAEIVEHTKILEIEVVKNVLALLGGRDKPKVLQRVEGGGSEKKEGTVENLKNEKFVVNSKFTEKRCRVRIAQVNIKTAVEETKEVKEEVNSDRQYKIDAAVVRIMKARKQLNHQTLMTELLQQLRFPVSTADIKKRLESLIEREYISRDPEEASSYNYVA", "soluble on expression in E. coli": "not soluble"},
      {"sequence": "MTSGGNSIEPSVVAEAEKMLFCYQYDQTITISITSSADPCPLCNGGFLDEYVDPNPNPIPNLILPMSDPISSRFSFIPVMDFTNPSFLGESMEPQSTQQQLNAFDPNQLSDQANPLAGNHGDYFFGRGLEDLI", "soluble on expression in E. coli": "not soluble"},
      {"sequence": "MTSGQFKPVPQILMELPPAEQQRLFNEAAAIIRHLEWTDAVQLTALVMGSEALQQQLLAMLVNYVTKELRAEIQYDD", "soluble on expression in E. coli": "soluble"},
      {"sequence": "MTSSDLPVMLFAAGFGTRMGDLTRTRPKPLIEVAGRPLVDHTLDLARAVSPPRIVANLHYLAPLLAAHLAPQGVLLSHEQPDILDTGGGLRQALPLLAAETVFTANSDAIWSGPNPFALLAEAWEPARMDALLMCVPVGQAIGHAGHGDFSRDAQGRIERGPGLIYGGVQIVKTGGLGDFDMPAFSLNLLWNRIGAAGRLFALEYPGRWCDVGHPGGIALAEEMLRDVLEHHHHHH", "soluble on expression in E. coli": "soluble"},
      {"sequence": "MTSSQLVKMRLELRRGVLVLAVLGLLKQPHYGYSLRKQLQDGGIDIDEGTLYPLVRRLAEQGLLDSEWRQAEGRERRYYQLSSSGAELLSQLTEEWQQLNGALAFLLGQVTDENAEEN", "soluble on expression in E. coli": "not soluble"},
      {"sequence": "MTSYEEETDYRNVPRELLDNNIPMGRGMIKWAPFATLPEQFETIQQYIIDQNKITRPVLSDDQLAELNIRLHEALQYAQPVEVKFYNNGFVDSVRLTIYRIDAINYEIDGYVYNQQQRQKISIFDILDIVLLPLEHHHHHH", "soluble on expression in E. coli": "soluble"},
      {"sequence": "MTTAARRPAPTTAGAGWDAGVGALVNPSRRRGGTLRLVSSADVDSLDPARTYYVWVWLLQRLLNRTLMAYPTDPGPAGLVPAPDLAEGPGEVSDGGRTWTYRLRRGLRYDDGTPITSDDVRHAVQRVFAQDVLPGGPTYLIPLLDDPERPYPGPYRTDEPLRSVLTPDEHTIVFRLTRPFSDFDHLMAQPCAAPVPRRSDTGADYGRDPRSSGPYRVARHEPDTLLHLERNPHWDRATDPIRPALPDRVELTIGLDVDVLDARLIAGEFDINLEGRGLQHAAQRRATADEVLRSHTDNPRTSFLHFVAMQPHIPPFDNVHVRRAVQYAADKILLQDARGGPVNGGDLTTALFPPTLPAHQDLDLYPTGPDLRGDLDAARAELAAAGLPDGFRAVIGTQRGKFRLVADAVVESLARVGIELTVKELDVATYFSLGAGHPETVREHGLGLLVTDWGADFPTEYGFLAPLVDGRQIKRNGGNWNLPELDDPEVNALIDETLHTTDPAARAELWRAVERRVMEHAVLLPLVHDKTLHFRNPWVTNVYVHPAFGLYDIQAMGLAEED", "soluble on expression in E. coli": "soluble"},
      {"sequence": "MTTDIRPLLVELFTEELPPKALQKLGQAFAEGVRATLARHHLLADGCAVEPFATPRRLAVRLSAVLAQAPEQAYAEKLMPVKVGLDANGQPTAALAKKLAAKGLEGLDPATLERESDGKQEYLVARGTAAGAQLAVGLQEGLDAAIDGLPIPKVMRYQLADGQTTVKFVRPAHGLVALFGADIVPIAALGLQAGRATQGHRFQSNGAIELATAQGYEADLAERGRVIASFEARRAEISRLLDEHAQRLGATLGDDPEVTALLDEVTALVEHPTVYVGQFEEQFLQVPQECLILTMRLNQKYFPLFDPASGKLTHRFLIVSNMQVADPANIVEGNQRVVRPRLADAQFFFETDRKTPLAARVEQLGSIVYHNKLSTQLERVERVRAIARGIATALGGDAAHCDRAALLAKADLGSNMVGEFPELQGIMGAYYAQGDGEPADVVTALRTQYRNRYDAPVDAATLTAATLFIAERIETLVGIWSIGLAPTGERDPFGLRRAALGLISAFEQLAAGGWLKVSEDGPLSLDGLLALAAQAFPDGKIGADTLAEVRAFIYERYRNQLIGEHDRNAVEAVIALAPPL", "soluble on expression in E. coli": "not soluble"},
      {"sequence": "MTTIFKLLRLPKNTIFQVLRQFKCLDLIAFSVCSKYAKSCVMYSTTSNKQKTIRIEFDDTIQFDLSPITKHICLFELLADQRNVLRKNFNECEMIINGNNFIRTEWSIAGFAIKDWMKHFLDIFGGPKIDIISFSGKGFNRTWFPRDLFRIFNAQSFYCVIDFILKILRSFQYPESLTTCKGKSLGRKPLNTIFILNFKSVKYYGRHQFQLTLNQLLAMNISTLKLLDSAISSKNLNFFLKHWLNGSNKRLEVLEIFGLNAYSPTIIFKNVAYQVILEDEIFSIYNEVFTFGYEIERSCDETRAAIFINSMPEVSHYCFRMIVGEVPNYLIIY", "soluble on expression in E. coli": "not soluble"},
      {"sequence": "MTTILAFDIETVPDVQGIRTLYELPSSLPDDEVVLFAQQKRRAQTGGDFMQHHLHQVVAISCCMRWGQDKVHVGTIGEMDDGEEVVIAKFFELIEKHTPQLVSWNGGGFDLPVLHYRSLIYGINAARYWDMGDGDFGDSRDFKWNNYISRYHQRHCDLMDLLALYQPRANVPLDDMAKLCGFPGKLGMDGSKVWEAFHTGRLKEIRNYCETDAANTYLMYLRFCLVSGRLDADEYEMEIKRMRNYLSAQAGEKPHWEEFVRAWE", "soluble on expression in E. coli": "not soluble"},
      {"sequence": "MTTLGTPVSLGRRTRTGRLELEFGVRHGQTALLRDLQKAPLMVVRPFRLPCGTLMVFIVNPTGGVLGGDHSEIHVEAGAGTRVLILTQSATRVQPSPGGEWATQELHFHVGVGARLEYYPERTLPFAGSRFRQHLRADLGAGAEFGLLETLASGRVQMGERLAWADYRSEVSVYAAQERVYLDRQHFRPGPHSRAPGVLGGNDYFASGVWVAGDSAAGRPAAESPTTAPGWASGLSAGGAVWARGVAATGPALDHAARQLREQVRHDLFGAAPLVLRRLEHHHHHH", "soluble on expression in E. coli": "not soluble"}
    ]}
  ]
}
